# Data reported in PMC4552549.
# Biological target: TβRII (TGF-β1 receptor) on PBMC (human (endogenous in PBMC)) (UniProt P37173)
# UniProt P37173, sequence (P37173 23-567): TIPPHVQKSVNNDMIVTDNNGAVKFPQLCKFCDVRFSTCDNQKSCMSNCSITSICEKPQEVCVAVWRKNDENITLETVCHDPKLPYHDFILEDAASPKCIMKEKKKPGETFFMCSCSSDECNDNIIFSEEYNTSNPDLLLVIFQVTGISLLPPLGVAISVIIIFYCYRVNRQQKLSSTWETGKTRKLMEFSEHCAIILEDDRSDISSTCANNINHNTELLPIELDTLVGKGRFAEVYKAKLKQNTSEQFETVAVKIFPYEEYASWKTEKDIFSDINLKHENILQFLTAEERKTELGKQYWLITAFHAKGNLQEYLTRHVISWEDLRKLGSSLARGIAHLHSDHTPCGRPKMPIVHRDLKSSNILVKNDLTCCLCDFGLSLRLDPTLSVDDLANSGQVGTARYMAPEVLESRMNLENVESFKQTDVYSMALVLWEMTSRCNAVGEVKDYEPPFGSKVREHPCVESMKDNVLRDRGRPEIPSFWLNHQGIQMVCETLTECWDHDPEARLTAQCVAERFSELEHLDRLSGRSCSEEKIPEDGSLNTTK
binder,measurement,value
ACESPLKRQCGGGS [pm26TGF-β1 synthetic peptide],"percentage of Tregs (CD4+CD25+Foxp3+, flow cytometry) in PBMC after the peptide at 1 μM, 10 μM and 100 μM (5.43%, 6.67% and 5.90%; untreated 4.94%)",6.67%
